Reference: the supplement of paper PMC9170038

Tested on: MS2 coat protein
Experiment: apparent KD of MS2 coat protein; higher = weaker reporter binding
Details: Eterna round: R107
How it was run: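 The buffer was 100 mM Tris-HCl pH 7.5 with 80 mM KCl and 4 mM MgCl2, used without or with constant ligand. In it, RNA switches transcribed on-chip from Illumina sequencing clusters were titrated with SNAP-549-labelled MS2 coat protein in twofold steps from 0.7 or 1.5 nM to 3 µM. Apparent KD for each design is the median of its normalised cluster binding-curve fits.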

[1] = input ligand: theophylline 20 uM
[2] = input ligand: tryptophan 2.4 mM
[3] = input ligand: theophylline 2 mM

Row | Sequence | apparent KD of MS2 coat protein (input ligand: arginine 13.2 mM) [µM] | apparent KD of MS2 coat protein [1] [µM] | apparent KD of MS2 coat protein [2] [µM] | apparent KD of MS2 coat protein (input ligand: none) [µM] | apparent KD of MS2 coat protein [3] [µM]
1 | AAUAACAUGAGGAUCACCCAUGUAAAAGAUACCAGAGUGAUGAUCCUCCCUUGGCAGCUUAAACGCUAUUGAUUACAAUAGCGAA [Mat - Same State Theophlline A - Mod of Eli - D2] | 0.0298 | 0.114 | 0.0286 |  | 
2 | UGUAUGUGAUUUGAUACCAGACCAGCUGGUGGUACUUGAGGAUCACCCAGGUAGGUUUGGGUCCCUUGGCAGCAAAUCGCAUACU [SS Theo B #24 Ms12] | 0.293 | 0.731 | 1.31 | 0.512 | 0.408
3 | GGUUGGUCGCAGGAUACCAGUCCACCCGUGAUACUGCUAAACAUGAGGAUCACCCAUGUCGACCCUUGGCAGCCUGUCCAUGCGU [theeternabot_exclusion_MS2_Theo_B_45] | 0.0188 | 0.0273 | 0.0171 |  | 
4 | UGUAUGUGAUCUGAUACCAGAGUGACGCGAAAGCGAAACCUGAGGAUCACCCUGGUAAAACUCCCUUGGCAGCAGAUCGCAUACU | 0.076 | 0.0353 | 0.0683 | 0.0495 | 0.0239
5 | UUGUUGUUUGGAAGGAGCGUGUAAGAUUAAGAACAUGAGGAUCACCCAUGUUUUAAGGGAGCACAGGUAGGUCGCCGGGUGGUGG [11.S] | 0.0144 | 0.0315 | 0.0215 | 0.0123 | 0.0159
6 | CUUCAGGGUGCGGCCGCCACUUAUUAGGUGCUUGCGACGCCAGCACAUGAGGAUCACCCAUGUUCAAGGACCGGGCACCACCUUU [theeternabot_sameState_MS2_Trp_B_21] | 0.00814 | 0.02 |  |  | 0.0151
7 | AUAUGAUCAUAGGAUACCAGAAAUGGUAUUCCUUUAUUUCUUACAUGAGGAUCACCCAUGUUCCCUUGGCAGCUUAUGAUCAUAU [ETHB #4] | 0.0793 | 0.169 | 0.107 |  | 
8 | AAUAAUCUAGGUGAUACCAGCUCAACAUGAGGAUCACCCAUGUACUCAUGUAGAGUUGAGAGCCCUUGGCAGCACCUAGAUAAUA [(Theo1)-(Ms2)-(M)'-(T)'-(Theo2)] | 0.198 | 0.665 | 1.02 |  | 
9 | UGUAUGUGAUCUGAUACCAGUCCAACUGGUAAAAUCUGAGGAUCACCCAGGUAAAAUUGGGACCCUUGGCAGCAGAUCGCAUACU | 0.146 | 0.423 | 0.235 | 0.175 | 0.544
10 | CACAGUGCGAAUUUGAAAUCGCACGAUCCUCGAGGACCGGUACGGCCGCCACUCGCGCGGGUCGUACAUGAGGAUCACCCAUGUC [Beertele] | 0.044 | 0.6 |  |  | 0.907
11 | GCGUUCUCUGCGGCCGCCACUCAAGGAGCUACAUAGCUCCUAGACAUGAGGAUCACCCAUGUGGCGAGGACCGGGUAGAUCCUUA [Same State Typptophan B GF7] | 0.0763 | 0.359 |  |  | 0.337
12 | AGACAUGAGGAUCACCCAUGUAGCAUGGAUACCAGAUCCAGAUUUAUCCCUUGGCAGCUGUGGUACAGUGAUGGAUUGCUCCUAG [Exclusion - Theophylline A (Freestyle 8)] | 0.0463 | 0.0936 | 0.0619 |  | 
13 | GCAUCCUAGUCGGCCGCCACUGCAAUUGUAGUACUGCUACAUGAACAUGAGGAUCACCCAUGUAGCAGGACCGGGACUAGGAUGC [(Trp1)-(TM)''-(TM)'-(Ms2)-(Trp2)_Design10] | 0.0444 | 0.0785 |  |  | 0.0685
14 | AAAAUCCUACUUGAGGAUCACCCAGGUGAAGGAGCGCCCGAAAGGGCAGGUAGGUCGCACCUGAGGAUCACCCUGGUAAACCUAA [ArgEX 8 #DoubleMS2 #OpenEnded] | 0.0791 | 0.135 | 0.152 | 0.14 | 0.185
15 | CGAUACAAAUAAAGCGUUCGUCCGCCAGAUACCAGAUUCAUUUCCAUCCCUUGGCAGCUGUCGACAUGAGGAUCACCCAUGUUUG [theeternabot_exclusion_MS2_Theo_A_41] | 0.0172 | 0.0217 | 0.0199 |  | 
16 | GGCACAUAGUCGGCCGCCACUAGAUUUUAGUGGAAUAACAUGAGGAUCACCCAUGUAUUUGGGACUAGGACCGGGACUAUGUGCC [Hyena] | 0.0345 | 0.0432 |  |  | 0.038
17 | AAAACACAUGAGGAUCACCCAUGUCAUGAUACCAGUCAACAUGAGGACCCUUGGCAGCAUAAAAUGGGUAACAUGAGGAUCACCC [AstrosEXyTheA#1] | 0.129 | 0.0938 | 0.0505 | 0.0294 | 0.102
18 | GUUGGACUUUCGGCCGCCACUGAGAGAGUCGUGUGAACAUGAGGAUCACCCAUGUAAUAUAUAUACAGGACCGGGAGGGUUGUAA [4.N] | 0.00894 | 0.0222 | 0.0113 | 0.0113 | 0.0197
19 | UUUGCACAUGAGGAUCACCCAUGUACAGAUACCAGCCUCAUCUACGGCCCUUGGCAGCUGAGACAAUGGUGACGUGAUGGGCUUU [Iserraxeso] | 0.0129 | 0.0147 | 0.0118 |  | 
